In patent US20080305504:

Columns and labels:
[1] = tested on: T1, fluorogenic composition Cy5-SEQ. ID. NO.: 1-Cy7Q
T1 sequence: KIIDEDLNSRALG

[2] = tested on: T2, hC3 peptide modified with Gly attached to a Cy5 dye at the N terminus
T2 sequence: KIIDEDLNSRALG

C3 convertase (in human plasma)
fluorescence intensity (excitation 623 nm, emission 676 nm), latex-activated plasma against plasma alone after subtracting the PBS control [1]: the signal enhancement due to Latex activation of complement was >100% | fluorescence intensity (excitation 623 nm, emission 676 nm), plasma incubated on latex coated polystyrene against plasma alone [1]: showed >50% enhancement in signal over the plasma alone sample | cleavage of the Cy5-labelled peptide in human plasma in a Latex plate, by reverse phase HPLC at 670 nm [2]: A new peak was observed in addition to the original peak. The new peak represents the cleavage product.
